According to patent US20010044939A1, “Small subunit of plant acetolactate synthase” (priority 2000, published 2001):

Tests used:
[1] = system: Nicotiana plumbaginifolia acetolactate synthase (ALS) holoenzyme: N. plumbaginifolia LSU (encoded by pMTDRALS; ALS10 cDNA SEQ ID NO:42, predicted polypeptide …); test: Inhibition of reconstituted plant ALS holoenzyme by herbicides (acetoin detection, microtiter plate); assay type: biochemical; conditions: holoenzyme (LSU + GST-SSU, thrombin cleaved); sodium pyruvate started (10 μL of 500 mM per well); pH 7.6; 37° C., 30 min; read-out: I50
Procedure: The plasmid pSSU Bbs/Bam was digested to completion with Bbs I and Xho I and the digestion products were separated by electrophoresis using a […] agarose gel and the 1.35 kbp Bbs I/Xho I fragment was recovered from the gel. Three hundred ng of this DNA was ligated with 1 μg of the plasmid pGEX-2TM that had been digested to completion with BamH I and Xho I and dephosphorylated as described above. The ligation reaction was diluted five fold with H2O and used to transform competent Max Efficiency E. coli DH5α as described above. […] This plasmid was designated pGEX-SSU.
The plasmid ALS10 that contains a full length cDNA copy of the Nicotiana plumbaginifolia ALS gene in the plasmid vector pBluescript was used as the source of the ALS coding region for pMTDRALS. The sequence of this cDNA is shown in SEQ ID NO:42. ALS10 was digested to completion with Xho I and Eco0109I, and the digestion products were separated by agarose gel electrophoresis. […] The plates were incubated overnight at 37° C. and plasmids isolated from kanamycin-resistant bacterial colonies were analyzed for the presence of the insert encoding the ALS large subunit by double digestion with Nde I and Xho I. One such plasmid, designated pMTDRALS was then transformed into E. coli BL21(DE3) using methods known to those skilled in the art. […]

[2] = target: GST-LSU: A. thaliana ALS large subunit expressed as a glutathione-S-transferase fusion protein from plasmid pGEX-OCM2 (Arabidopsis thaliana) (UniProt P17597); test: cell-based or functional assay
[3] = target: N. plumbaginifolia ALS large subunit from plasmid pMTDRALS (Nicotiana plumbaginifolia); test: cell-based or functional assay
[4] = target: free Arabidopsis thaliana ALS large subunit released from GST-LSU by thrombin (Arabidopsis thaliana) (UniProt P17597); test: cell-based or functional assay

Row | Molecule | IC50 [1] [µM] | Specific Activity before thrombin addition (units/mg LSU), ALS enzyme assay [2] [units/mg LSU] | Specific Activity before thrombin addition (units/mg LSU), ALS enzyme assay [3] [units/mg LSU] | Specific Activity after thrombin addition (units/mg LSU), ALS enzyme assay [3] [units/mg LSU] | Specific Activity after thrombin addition (units/mg LSU), ALS enzyme assay [4] [units/mg LSU] | other results
1 | CC(C)C1(C)N=C(c2nc3ccccc3cc2C(=O)O)NC1=O (stereo not shown) [imazequin] | 0.8 |  |  |  |  | 
2 | CCc1cnc(C2=NC(C)(C(C)C)C(=O)N2)c(C(=O)O)c1 (stereo not shown) [imezethapyr] | 4 |  |  |  |  | 
3 | Trx-HIS/SSU: N. plumbaginifolia acetolactate synthase small subunit expressed as a thioredoxin fusion from plasmid pTrx-HIS/SSU (from UniProt P0AA25 1-109) |  | 0.9 | 5.5 |  |  | fold increase in specific activity (sample 2 against sample 1, before thrombin) [2]: 3 fold; fold increase in specific activity (sample 4 against sample 3, before thrombin) [3]: 5 fold
4 | bovine serum albumin (from UniProt P02769 25-607) |  | 0.3 | 1.1 | 0.4 | 0.04 | 
5 | free N. plumbaginifolia ALS small subunit released from Trx-HIS/SSU by thrombin |  |  |  | 6.5 | 1.1 | fold increase in specific activity (sample 2 against sample 1, after thrombin) [4]: > 20 fold
